Target: RBM5 OCRE domain (residues 451-511), wild type (human) (UniProt P52756)
Assay: ITC; Sm tail constructs with wild type OCRE; SmN constructs (1 mM) titrated into OCRE (100 μM); ITC200, 24°C, 20 mM sodium phosphate pH 6.5, 50 mM NaCl; duplicates

Chain of RBM5 OCRE domain (residues 451-511), wild type (human) (P52756 other isoform, or with tags, fused parts or gaps): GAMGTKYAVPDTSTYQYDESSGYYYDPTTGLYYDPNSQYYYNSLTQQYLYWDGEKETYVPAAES

| Kd [µM] | Substance |
| --- | --- |
| 74 | SmN 167-240 R2→E2 (from UniProt P63162 167-240) (domain or fragment) |
| 20 | SmB 167-231 4P→4A (from UniProt P14678-2 167-231) (domain or fragment) |
| 159 | SmB 167-231 R1/R2→E1/E2 (from UniProt P14678-2 167-231) (domain or fragment) |
| 150 | SmN 167-240 R1/R2→E1/E2 (from UniProt P63162 167-240) (domain or fragment) |
| 66.5 | SmN 167-240 R1→E1 (from UniProt P63162 167-240) (domain or fragment) |

Reference: article PMC5127646
